Experimental findings from patent US20160194407A1 (AstraZeneca / MedImmune, published 2016) are described below.

The target of one test is T1, murine CD73 on cells (murine, UniProt Q61503 29-551).
T1 sequence (looked up): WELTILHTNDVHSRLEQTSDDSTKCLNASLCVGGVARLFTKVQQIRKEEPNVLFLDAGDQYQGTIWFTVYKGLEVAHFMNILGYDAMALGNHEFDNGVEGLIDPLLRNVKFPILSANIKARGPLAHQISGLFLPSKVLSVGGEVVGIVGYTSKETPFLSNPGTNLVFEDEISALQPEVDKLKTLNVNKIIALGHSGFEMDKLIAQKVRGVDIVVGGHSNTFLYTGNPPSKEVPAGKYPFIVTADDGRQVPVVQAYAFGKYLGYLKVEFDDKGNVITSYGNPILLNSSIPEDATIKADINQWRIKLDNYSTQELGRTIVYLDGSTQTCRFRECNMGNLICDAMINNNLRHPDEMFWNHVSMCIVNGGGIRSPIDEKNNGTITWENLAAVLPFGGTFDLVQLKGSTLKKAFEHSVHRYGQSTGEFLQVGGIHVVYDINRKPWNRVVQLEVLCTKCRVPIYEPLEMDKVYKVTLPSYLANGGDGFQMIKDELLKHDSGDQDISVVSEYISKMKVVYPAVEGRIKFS
Put plainly: cell-based or functional assay.

For test [1], the target named is T2, CD73 construct with chicken N- and C-terminal domain sequence and knocked-in human V144 and N185.
T2 construct: K180 is conserved between chicken and human; also called chicken CD73 replaced with V144 and N185; knock-in
T2 chain: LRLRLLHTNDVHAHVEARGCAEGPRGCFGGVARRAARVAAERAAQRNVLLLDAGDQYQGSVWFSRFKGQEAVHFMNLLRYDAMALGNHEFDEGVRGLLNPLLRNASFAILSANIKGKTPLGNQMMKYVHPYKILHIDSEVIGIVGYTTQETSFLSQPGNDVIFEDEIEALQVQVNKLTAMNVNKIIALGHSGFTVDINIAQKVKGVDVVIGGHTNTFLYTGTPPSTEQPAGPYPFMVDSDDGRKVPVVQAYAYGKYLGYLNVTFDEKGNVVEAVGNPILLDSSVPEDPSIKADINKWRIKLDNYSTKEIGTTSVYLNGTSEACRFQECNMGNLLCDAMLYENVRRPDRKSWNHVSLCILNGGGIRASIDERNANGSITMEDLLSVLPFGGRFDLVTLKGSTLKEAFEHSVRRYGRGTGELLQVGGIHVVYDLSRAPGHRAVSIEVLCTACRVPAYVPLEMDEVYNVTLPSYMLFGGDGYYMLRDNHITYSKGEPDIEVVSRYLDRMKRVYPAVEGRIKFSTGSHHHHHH
Put plainly: SPR ProteOn, His-tagged CD73 variant on HTG chip.
Description: CD73 crude cell supernatant protein samples were diluted to 3 μg/ml in PBS, 0.005% Tween-20, pH 7.4 (BioRad) and immobilized to ˜400 RU on a HTG tris-NTA sensor chip (BioRad) pre-activated with 10 mM NiSO₄, 10 mM MES, pH 6.0 (BioRad). An equivalently diluted crude cell supernatant sample from non-transfected cells was included as a reference channel control. […] Antibody binding was measured at a flow rate of 100 μL/min with a 3 min association phase and 20 min dissociation phase. The sensor chip surface was regenerated between each run by an 800 s injection of 300 mM EDTA, pH 8.5 (BioRad) at a flow rate of 30 μL/min. Binding kinetics were analyzed using the ProteOn data analysis software. Double referencing was performed and, unless noted otherwise, a 1:1 Langmuir binding model was utilized to fit the data. […] Where noted, these variants were fit with a heterogenous antigen (2:1) model.

Test [2] concerns the target T2, CD73 construct with chicken N- and …. Nature of the test: SPR ProteOn, MEDI9447 dilutions from 5 nM to 0.3 nM.
Description: CD73 crude cell supernatant protein samples were diluted to 3 μg/ml in PBS, 0.005% Tween-20, pH 7.4 (BioRad) and immobilized to ˜400 RU on a HTG tris-NTA sensor chip (BioRad) pre-activated with 10 mM NiSO₄, 10 mM MES, pH 6.0 (BioRad). An equivalently diluted crude cell supernatant sample from non-transfected cells was included as a reference channel control. […] Antibody binding was measured at a flow rate of 100 μL/min with a 3 min association phase and 20 min dissociation phase. The sensor chip surface was regenerated between each run by an 800 s injection of 300 mM EDTA, pH 8.5 (BioRad) at a flow rate of 30 μL/min. Binding kinetics were analyzed using the ProteOn data analysis software. Double referencing was performed and, unless noted otherwise, a 1:1 Langmuir binding model was utilized to fit the data.
The next test deals with T3, human CD73 K180A (human, UniProt P21589 27-553, K180A).
T3 sequence: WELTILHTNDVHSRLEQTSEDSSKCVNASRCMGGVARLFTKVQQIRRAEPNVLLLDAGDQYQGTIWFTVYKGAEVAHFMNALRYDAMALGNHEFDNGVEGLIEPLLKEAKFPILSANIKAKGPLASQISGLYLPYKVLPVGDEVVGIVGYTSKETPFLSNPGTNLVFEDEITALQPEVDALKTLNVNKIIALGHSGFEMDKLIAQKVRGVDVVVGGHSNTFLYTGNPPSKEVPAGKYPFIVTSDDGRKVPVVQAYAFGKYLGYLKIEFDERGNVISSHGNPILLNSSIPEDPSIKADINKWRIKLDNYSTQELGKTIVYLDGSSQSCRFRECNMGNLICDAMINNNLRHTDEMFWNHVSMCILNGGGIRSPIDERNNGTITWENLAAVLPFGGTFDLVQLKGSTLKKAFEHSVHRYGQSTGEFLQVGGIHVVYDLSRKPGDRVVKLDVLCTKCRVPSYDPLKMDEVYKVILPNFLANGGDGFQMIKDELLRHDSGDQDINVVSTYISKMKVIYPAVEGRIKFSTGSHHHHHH
Put plainly: SPR ProteOn, His-tagged CD73 variant on HTG chip.

The target of another test is T4, human CD73 V144K + K180A (human, UniProt P21589 27-553).
T4 chain: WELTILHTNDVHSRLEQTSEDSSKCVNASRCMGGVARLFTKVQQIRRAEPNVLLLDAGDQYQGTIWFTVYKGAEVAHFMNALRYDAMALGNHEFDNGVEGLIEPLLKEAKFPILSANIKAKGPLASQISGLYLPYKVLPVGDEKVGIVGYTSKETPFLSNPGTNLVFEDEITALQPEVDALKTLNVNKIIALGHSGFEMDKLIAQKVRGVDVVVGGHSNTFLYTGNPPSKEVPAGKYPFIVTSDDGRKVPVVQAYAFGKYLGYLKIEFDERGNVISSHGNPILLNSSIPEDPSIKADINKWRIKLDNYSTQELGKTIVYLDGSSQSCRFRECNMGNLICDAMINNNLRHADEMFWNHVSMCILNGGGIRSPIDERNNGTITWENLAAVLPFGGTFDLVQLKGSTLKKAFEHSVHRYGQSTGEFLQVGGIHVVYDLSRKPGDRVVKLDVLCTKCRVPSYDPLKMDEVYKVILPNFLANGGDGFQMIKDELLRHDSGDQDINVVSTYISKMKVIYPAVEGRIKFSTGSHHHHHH
Nature of the test: SPR ProteOn, His-tagged CD73 variant on HTG chip.

The target of a further test is T5, cynomolgus CD73 on cells (cynomolgus).
T5 construct: whole, on cells; also called native CD73 on MK-1 cells (cynomolgus)
Nature of the test: flow cytometry on MK-1 cells, one-site fit of median fluorescence.

Description for cynomolgus CD73 on cells: All flow cytometry experiments were run at 4 C and reagents were prepared in PBS/1% FBS buffer. 10,000 cells were incubated with test antibody in 50 uL volume for 4 hours. Cells were washed twice and incubated in 50 uL goat anti-human IgGFc-AlexaFluor647 conjugate for 15 minutes. Cells were washed, resuspended in buffer supplemented with Dapi, and analyzed on a flow cytometer. Dead cells, identified by high Dapi staining, were excluded from the analysis. For the determination of KD values, a plot of the median fluorescence intensity as a function of test antibody concentration was fitted nonlinearly using a one site binding isotherm model.

B1: MEDI9447 (antibody, V domains shown)
VH: EVQLLESGGGLVQPGGSLRLSCAASGFTFSSYAYSWVRQAPGKGLEWVSAISGSGGRTYYADSVKGRFTISRDNSKNTLYLQMNSLRAEDTAVYYCARLGYGRVDEWGRGTLVTVSS
VL: QSVLTQPPSASGTPGQRVTISCSGSLSNIGRNPVNWYQQLPGTAPKLLIYLDNLRLSGVPDRFSGSKSGTSASLAISGLQSEDEADYYCATWDDSHPGWTFGGGTKLTVL
notes: also called clone 10.3 antibody; 73combo3
Regarding B1, the “FabZAP internalization, max toxicity, 4T1” value with murine CD73 on cells came to 97%. For the same molecule, the Kd (usually the constant that tells how readily two partners part at equilibrium) in test [1] was 0.079 nM; with cynomolgus CD73 on cells it was 0.084 nM. Besides, the “fold of the KD for wild-type CD73” value in test [2] was below 20 fold. Also, the figures for the koff with human CD73 K180A and with human CD73 V144K + K180A were 0.000154 s⁻¹ and 0.00425 s⁻¹, respectively. Further, the kon – broadly, the rate constant with which the complex forms – in the test with human CD73 K180A came to 3.45e+06 M⁻¹ s⁻¹; in the test with human CD73 V144K + K180A, 1.58e+06 M⁻¹ s⁻¹.
